± gives the uncertainty stated by the source.
B1: Nucleosome-remodeling factor subunit BPTF, residues 2862 to 2918; numbered along this chain, Q12830 (parent)
chain: TKKDTKLYCICKTPYDESKFYIGCDRCQNWYHGRCVGILQSEAELIDEYVCPQCQST

Variants of: B1
Experiment: abundance fitness (aPCA) (normalised: wild type 0, dead -1); higher = more abundant; growth selection in yeast, the domain comes from the species named
Settings: Homo sapiens

Row | Variant | abundance fitness
1 | TKKDTKLYCICKTPYDESKFYIGCDRCQNWYHGRCVGILQSELELIDEYVCPQCQST | -0.144 ± 0.099
2 | TKKDTKLYCICKTPYDESKFYIGCDRCQNWYHGRCVGILQSERELIDEYVCPQCQST | -0.076 ± 0.081
3 | TKKDTKLYCICKTPYDESKFYIGCDRCQNWYHGRCVGILQSEFELIDEYVCPQCQST | -0.17 ± 0.16
4 | TKKDTKLYCICKTPYDESKFYIGCDRCQNWYHGRCVGILQSESELIDEYVCPQCQST | -0.119 ± 0.084
5 | TKKDTKLYCICKTPYDESKFYIGCDRCQNWYHGRCVGILQSEIELIDEYVCPQCQST | 0.016 ± 0.12
6 | TKKDTKLYCICKTPYDESKFYIGCDRCQNWYHGRCVGILQSEHELIDEYVCPQCQST | 0.013 ± 0.16
7 | TKKDTKLYCICKTPYDESKFYIGCDRCQNWYHGRCVGILQSEMELIDEYVCPQCQST | -0.13 ± 0.092
8 | TKKDTKLYCICKTPYDESKFYIGCDRCQNWYHGRCVGILQSEVELIDEYVCPQCQST | -0.036 ± 0.096
9 | TKKDTKLYCICKTPYDESKFYIGCDRCQNWYHGRCVGILQSEEELIDEYVCPQCQST | -0.226 ± 0.18
10 | TKKDTKLYCICKTPYDESKFYIGCDRCQNWYHGRCVGILQSEWELIDEYVCPQCQST | -0.182 ± 0.14
11 | TKKDTKLYCICKTPYDESKFYIGCDRCQNWYHGRCVGILQSEDELIDEYVCPQCQST | -0.392 ± 0.11
12 | TKKDTKLYCICKTPYDESKFYIGCDRCQNWYHGRCVGILQSENELIDEYVCPQCQST | -0.251 ± 0.13
13 | TKKDTKLYCICKTPYDESKFYIGCDRCQNWYHGRCVGILQSEGELIDEYVCPQCQST | -0.028 ± 0.12
14 | TKKDTKLYCICKTPYDESKFYIGCDRCQNWYHGRCVGILQSETELIDEYVCPQCQST | -0.148 ± 0.097
15 | TKKDTKLYCICKTPYDESKFYIGCDRCQNWYHGRCVGILQSEYELIDEYVCPQCQST | -0.074 ± 0.18
16 | TKKDTKLYCICKTPYDESKFYIGCDRCQNWYHGRCVGILQSEKELIDEYVCPQCQST | -0.025 ± 0.12
17 | TKKDTKLYCICKTPYDESKFYIGCDRCQNWYHGRCVGILQSEQELIDEYVCPQCQST | 0 ± 0.1
18 | TKKDTKLYCICKTPYDESKFYIGCDRCQNWYHGRCVGILQSEPELIDEYVCPQCQST | -0.167 ± 0.11
19 | TKKDTKLYCICKTPYDESKFYIGCDRCQNWYHGRCVGIDQSEAELIDEYVCPQCQST | -0.062 ± 0.39
20 | TKKDTKLYCICKTPYDESKFYIGCDRCQNWYHGRCVGIEQSEAELIDEYVCPQCQST | 0.225 ± 0.48
21 | TKKDTKLYCICKTPYDESKFYIGCDRCQNWYHGRCVGIVQSEAELIDEYVCPQCQST | -0.286 ± 0.26
22 | TKKDTKLYCICKTPYDESKFYIGCDRCQNWYHGRCVGITQSEAELIDEYVCPQCQST | -0.08 ± 0.39
23 | TKKDTKLYCICKTPYDESKFYIGCDRCQNWYHGRCVGIFQSEAELIDEYVCPQCQST | -0.006 ± 0.33

Row | Variant | abundance fitness
24 | TKKDTKLYCICKTPYDESKFYIGCDRCQNWYHGRCVGISQSEAELIDEYVCPQCQST | -0.024 ± 0.36
25 | TKKDTKLYCICKTPYDESKFYIGCDRCQNWYHGRCVGIAQSEAELIDEYVCPQCQST | -0.306 ± 0.39
26 | TKKDTKLYCICKTPYDESKFYIGCDRCQNWYHGRCVGIRQSEAELIDEYVCPQCQST | -0.033 ± 0.34
27 | TKKDTKLYCICKTPYDESKFYIGCDRCQNWYHGRCVGIPQSEAELIDEYVCPQCQST | 0.102 ± 0.28
28 | TKKDTKLYCICKTPYDESKFYIGCDRCQNWYHGRCVGIGQSEAELIDEYVCPQCQST | -0.116 ± 0.31
29 | TKKDTKLYCICKTPYDESKFYIGCDRCQNWYHGRCVGIWQSEAELIDEYVCPQCQST | -0.326 ± 0.45
30 | TKKDTKLYCICKTPYDESKFYIGCDRCQNWYHGRCVGILQSEAKLIDEYVCPQCQST | -0.018 ± 0.093
31 | TKKDTKLYCICKTPYDESKFYIGCDRCQNWYHGRCVGILQSEAMLIDEYVCPQCQST | -0.089 ± 0.093
32 | TKKDTKLYCICKTPYDESKFYIGCDRCQNWYHGRCVGILQSEADLIDEYVCPQCQST | 0.027 ± 0.13
33 | TKKDTKLYCICKTPYDESKFYIGCDRCQNWYHGRCVGILQSEANLIDEYVCPQCQST | -0.116 ± 0.1
34 | TKKDTKLYCICKTPYDESKFYIGCDRCQNWYHGRCVGILQSEAALIDEYVCPQCQST | -0.001 ± 0.1
35 | TKKDTKLYCICKTPYDESKFYIGCDRCQNWYHGRCVGILQSEAFLIDEYVCPQCQST | -0.089 ± 0.17
36 | TKKDTKLYCICKTPYDESKFYIGCDRCQNWYHGRCVGILQSEAILIDEYVCPQCQST | -0.193 ± 0.12
37 | TKKDTKLYCICKTPYDESKFYIGCDRCQNWYHGRCVGILQSEACLIDEYVCPQCQST | -0.137 ± 0.1
38 | TKKDTKLYCICKTPYDESKFYIGCDRCQNWYHGRCVGILQSEALLIDEYVCPQCQST | -0.11 ± 0.077
39 | TKKDTKLYCICKTPYDESKFYIGCDRCQNWYHGRCVGWLQSEAELIDEYVCPQCQST | -0.46 ± 0.12
40 | TKKDTKLYCICKTPYDESKFYIGCDRCQNWYHGRCVGYLQSEAELIDEYVCPQCQST | -0.059 ± 0.11
41 | TKKDTKLYCICKTPYDESKFYIGCDRCQNWYHGRCVGILQSFAELIDEYVCPQCQST | -0.274 ± 0.18
42 | TKKDTKLYCICKTPYDESKFYIGCDRCQNWYHGRCVGILQSAAELIDEYVCPQCQST | -0.099 ± 0.091
43 | TKKDTKLYCICKTPYDESKFYIGCDRCQNWYHGRCVGILQSSAELIDEYVCPQCQST | -0.205 ± 0.094
44 | TKKDTKLYCICKTPYDESKFYIGCDRCQNWYHGRCVGILQSQAELIDEYVCPQCQST | -0.021 ± 0.1
45 | TKKDTKLYCICKTPYDESKFYIGCDRCQNWYHGRCVGILQSMAELIDEYVCPQCQST | -0.288 ± 0.15
46 | TKKDTKLYCICKTPYDESKFYIGCDRCQNWYHGRCVGILQSTAELIDEYVCPQCQST | -0.37 ± 0.11
